The series can be described thus: soluble on expression in E. coli; label from the status in PepcDB or PDB records.
As for “MKRSSTVLAALLALLLVATNDAARHRKYRQTYQDIDSDDDDTSDVQITVFPSEKEVRDGRDVSFECRARTSDNSVYPTVRWARVGGPLPSSAHDSGGRLTINPVQLSDAGTYICVSDYNGNTVEARATLSVVSYGPQEVSNGLRQAGQCMADEKACGNNECVKNDYVCDGEPDCRDRSDEANCPAISRTCEPNEFKCNNNKCVQKMWLCDGDDDCGDNSDELNCNAKPSSSDCKPTEFQCHDRRQCVPSSFHCDGTNDCHDGSDEVGCVQPTVVDPPQTNLQVPRGTTFSLTCKAVAVPEPYINWRLNWGPVCEPPRCLQTSEGGYGTLTIHDAQPVDQGAYTCEAINVKGRVLATPDCIVRVVDDPRPQPPQPPTAPPQRASCDTRGAVTPYPNNYGTCECKSQVTGPNCDQCKPGAFHLSEKSPEGCLKCFCFGVSNDCRSSGHYRTKDRLMFAGDAEGVTISDIEERTIDRNTPFSFFKTGYLTFDGTTDGVAKYWRLPQRFLGDKVTAYGGKMEFEIEFSGSGHHSSEPMVVLKGNQNILVHRVRNQEHVLRSDSPVRITVETYETNYEQLNGAAATREDLLMVLADLDAFLIRATHVAHQTSTSLGDVSWEIAVDRYTPDGLALEVEQCVCPPGYLGTSCEDCAPGYERSGYGPYLGTCVPIQPRHQQCGPGAVAPTAPAQGQCQCKASVIGPNCDRCAPNSFGLAPTNPQGCIPCFCSGVTQQCSASSYRRTSVSIDYARGDRDQLELTTSDSRQPYSPQTRAELSGQAIEFRSFEEARGQTLYWKLPEKFLGDKVTSYGGTLEYTFKFSGNGNSDQSADVILRGNDIALQYKHREPFYADRENKVQIKIIETSWQRVDGQQATREHLLMTLADLDTLLIKSTYNDDCTDSQLLSANLEFAEPYGQGLTAAEVEQCICPPGYVGTSCEDCAPGYSRTGGGLYLGLCEKCECNGHASQCDKEYGYCLDCQHNTEGDQCERCKPGFVGDARRGTPNDCQPEATRAPCHCNNHSPRGCDSFGRCLLCEHNTEGTHCERCKKGYYGDATKGSPYDCTPCPCPGASDCYLDNEGQVACRICPAGLQGRLCNECAPGYTRSNKPAGRVCEPIGQVTNEDITFVQKPHEGDFARNSPSQNSSGQRRHRRRRIRVRSRFYHH”, the “soluble on expression in E. coli” value is reported as “not soluble”.

As to “MRVIVFFDLPVITPENRHNYSVFRKYLIKSGFIMQQKSVYSKLVLNLTNRDSIVKSIEKNKPPEGLVEVLTVTEKQYAKMEIIIGESKTEYLNTDERLVVLLEHHHHHH”, the “soluble on expression in E. coli” value is reported as “soluble”.

For “MADGPDKKRRKLTSALKDAIGAHSQKPEENIEKPIALALISDNKAAQDLLNKIQASRRPQAILEATLKICKEKKSEAHVDEAFLSIFRKHFSILGVDSALACWKLIEEHLNSSESINEIRIANEFISTSNLLGHGFGKLLQNMKQGIPVVIQNTWRQERKADALALAYPFLSLLLADQVYGDHQNLESLAEFWKNQVLPEKSMKKDFGMRMVSALAGGEPGQLPETKIDENQLEMLSKIYENHLEFYTGILSESTCSQLLAKVIEDNLAKNELKQLARRCQTAEVCMSPCIYYAMISVLRSTFDLNDSELIFIENLKTLKLKEITKHLPSIINSCSNTRQITASKKLKNLENLQDFLHNVTEKPENDNFSAAFALLSINISLIFDNWNFCEKILKTLPKDVLEKLIKAGKGSENENILKVFKKVAQEAAPVKFVNRTAADVAEKLREPEFAVAEALSLLQGVHTAETKKEVFDSVVKFVEEIPGAESIDEMKLFKLIIEMYGGSQLESLAVQVVFSRIAADGWTEMDRAPGTEKSDESWFTVLVETIDLLDIAMKSAKNSVLKSFTALFCQLFSQVLKNSQKFVRNSLNAVASRTLSPEMETEFVLRRHKLSQDLARLVDAMKRNESYFAMLTASIIGDAVFYGSDSLLAMSKLHSLADKNASALLATNLPVVERTRYKKFLSTITRASKRIY”, the “soluble on expression in E. coli” value is reported as “not soluble”.

For “MGSDKIHHHHHHMRITEFYVSNFRSLSEVNLKDLGGFNIVVGYNGYGKTNLLSSIFLFVKNLSAGIEKRSIEDRNQEFILLWQGYDVSKPIMIGGKVEFSPEESNKIVGKNQKITLEIINKMRYNNKFVEWNLDTLYINGSPPGEDDLKVAKKLAEYASQAIEYVPIFDQTYFDETLKRMTEMNKSPINLRKYWYDFVNLVAATIPEVKGMEFWDGRRLVLNVYNLPIYIDLAASGFQRVILMLFIIWLSGNKILLIEEPEVNMHPTLQAKIMKLIKNWTDNNILQSFLTTHSPYIVEMAADSYVVMRRVNGNSTAITVKPTPDLRGTISLLNASLSNILFSRIIILTSELAEPSVIVNWLKRLNINVEDNGISIYKVSSDLELQHWLKLKNMLNLDVIFLGLCDKLDMSLKDYCVPLSREVENFYSKQALLEVLRRLGIYPDEKEIRDLGKEENLRWIINVLRKRGIEYEKLRMSIGELITDVDSIEIPKEIEILANKIKSLQATL”, the “soluble on expression in E. coli” value is listed as “not soluble”.

For the sequence “MSLDSLDKSKLERMLDIKEAHREGHLTLEEAKERMKKEVGSISPEEFAAAEQLFKERDQDECQNEDVRTMLQLFEGLINPIRPDLPFGHPIDAYLRENDKAKELLDQADALLERTFIPNPWIELMETLMGYKLHFARKQNQLYSTLEQKGFDRPSTTMWTYDDHIRDEMNKAMSLLREKDYDSFPAAYKEMAIVLRDLMEKEELILYPTSLKLISDKEFEEMKHGDREIGFFLIDMPELDAPAKQSKEAHGQSFMAELGALLAKHGMGTGGQDDKAILDVAEGKLTLEQINLLFRHLPVDISFVDENELVCFYTDTKHRVFPRSKGVIGREVRNCHPPKSVHIVEEIIDKFRRGEQDRAEFWINKPGVFIYIVYVAIRDADGRFRGVMEMMQDCTRIRSLEGSRTLLTEGHHHHHH”, the “soluble on expression in E. coli” value is given as “soluble”.

“MGSDKIHHHHHHMIYSVDKKDIEIGISACLIGEKVRFDASNKPSHFCIKEFSEHVSYKSFCPEVAVGLPIPRPTIRQIKRDDVIHVSQKDGSGDVTEALKAYGKKVASMTKSLSGYIFCAKSPSCGMERVKIYSPEGNSLPSKGIGAFAKEIMDANPLLPCEENGRLNDPLLRENFVARVFAYKHWQTIVESGLTKHKLTTFHSHYKYTVMSHDLIAYKELGQLLARADLPLDEVAAQYILGLMTALKIIATRKKHANTLAHIQGYFSKHLQANERQELCEQIDAYREGLIPLMAPLTLIKHYLLNHPKDYLTKQAYLSPYPDKLRLRYAY”: the “soluble on expression in E. coli” value is “not soluble”.

As for “MEIKMAKDYGFCFGVKRAIQIAEKNQNSLIFGSLIHNAKEINRLEKNFNVKIEEDPKKIPKNKSVIIRTHGIPKQDLEYLKNKGVKITDATCPYVIKPQQIVESMSKEGYQIVLFGDINHPEVKGVISYATNQALVVNSLEELQEKKLQRKVALVSQTTKQTPKLLQIASYLVERCTEVRIFNTICNATSYNQKAALDLSKEVDIMIVVGGKTSSNTKQLLSIAKQHCKDSYLVEDENELELAWFKDKKLCGITAGASTPDWIIENVKQKISTILEHHHHHH”, the “soluble on expression in E. coli” value is “not soluble”.

For the sequence “MVRELKRFGARFTFLFSARRMCPLMTAEGSLPSVEDFWGNCRIARAKGVCSYYEELSRLDEAEVAQYVRSRPVISAYRLAWDIAKFKGACPFFALKGLVEDSQFIVATYPYLFKEDIFRSFLEPYDYGDFVAVVDEAHSLLNIHSLHEYRVSQRDLDLALKEVREYASSARDFIAWLESVLKKASRLKVSRITLLDKQPFLEGLDDLSVVEDVVETIRARKAEEALSLSGPSGIGRVKTMASRIYSWLSVLVRDDSYLFAEKDEGGVLWLIATPLDPSRVVKEPLEKVKAAVLLSGTMPSTKLYMEVLGVSRSFKFVDVNLMYGARGFGRFFTIVAADVTTAYRSRGDSMYRLIASRIAMADRLLPGLKLAVYPSYEVMYRVVERLPADVETIVETRGISLDEVEAKILARDPGEKIIINAVAGGKLVEGVEFVDYEGRNLLSTVIVVGVPFPQPDDYTRKHLEVMASRIGVSNARKLVYLVNPMIKVRQALGRGIRGPEDRALYILMDYRYLRRDLKEVLGMPYHRVVKGAEDFEEAVKAARSRVFGG”, the “soluble on expression in E. coli” value is reported as “soluble”.

Turning to “MSAPLRVLVTGAAGQIGYSIVIRIADGTVFGKEQPVELVLLDVPQCSNILEGVVFELQDCALPTLFSVVAVTDEKSAFTGIDYAFLVGAMPRREGMERKDLLAANVKIFKSQGKALAEYAKPTTKVIVVGNPANTNAFIAAKYAAGKIPAKNFSAMTRLDHNRALAQLALKTGTTIGNVKNVIIWGNHSGTQFPDVTHATVNKNGTETDAYAAVGDNAFLQGPFIATVQKRGGVIIEKRKLSSAMSAAKAACDHIHDWHFGTKAGQFVSMAVPSDGSYGIPQGLIFSFPVTIEGGEWKIVQGLSFDDFAKGKIAATTKELEEERDDALKACDDANI”, the “soluble on expression in E. coli” value is given as “not soluble”.

Consider “MSLNHPSSTPVPPLDATPARALGEFIRAHRERLSPQAVGLPPGPRRRTPGLRREEVAQLCGVSPTWYTWIEQGRPVSASADALARIAVALQLSKAERAYLFELAAQRDPAEPDVAGGDLPPTLAATVAAIATPAYVMDRQWNALAWNTPAAALFSGWLDGEHDRNLLRFTFMSPAARTLIVDWETRARRMAAEFRADSIRHLTDAPTRALIDALTAGSDAFAQYWASQDVFEREGGLREFDHPADGRMVYQQITLKPAHREDLKLVVLVRDEGHHHHHH”, for which the “soluble on expression in E. coli” value was “soluble”.

As to “MNGESDCATCTISGAKLGNALGAIWTFVHTMEQGDVVLVRHGAWLSIGIIGPYRYVKHLDNDIYGFCHQRSVEWKIINENVRLYNEKVHETLRHPGVVTKSKYTVHELQLGIEW”, the “soluble on expression in E. coli” value was “not soluble”.

In the case of “VAKRLDLTDVNIYYGSFHAVADVSLAILPRSVTAFIGPSGCGKTTVLRTLNRMHEVIPGARVEGAVLLDDQDIYAPGIDPVGVRRAIGMVFQRPNPFPAMSIRNNVVAGLKLQGVRNRKVLDDTAESSLRGANLWDEVKDRLDKPGGGLSGGQQQRLCIARAIAVQPDVLLMDEPCSSLDPISTMAIEDLISELKQQYTIVIVTHNMQQAARVSDQTAFFNLEAVGKPGRLVEIASTEKIFSNPNQKATEDYISGRFG”, the “soluble on expression in E. coli” value is recorded as “not soluble”.

For the sequence “MGSSHHHHHHSSGLVPRGSHMVAFLRGDRRKENSDNFRTRNSILGDIINSSPATVGKAQYLTYLAQPIEPSGNYSTFAEAQKTRAPRVYVGANDGMLHGFDTDGNETFAFIPSAVFEKMHKLTARGYQGGAHQFYVDGSPVVADAFFGGAWHTVLIGSLRAGGKGLFALDVTDPANIKLLWEIGVDQEPDLGYSFPKPTVARLHNGKWAVVTGNGYSSMNDKAALLIIDMETGAITRKLEVTGRTGVPNGLSSPRLADNNSDGVADYAYAGDLQGNLWRFDLIAGKVNQDDPFSRANDGPAVASSFRVSFGGQPLYSAVDSAGAAQAITAAPSLVRHPTRKGYIVIFGTGKYFENADARADTSRAQTLYGIWDQQTKGEAAGSTPRLTRGNLQQQTLDLQADSTFASTARTIRIASQNPVNWLNNDGSTKQSGWYLDFMVNGTLKGEMLIEDMIAIGQVVLLQTITPNDDPCADGASNWTYGLDPYTGGRTSFTVFDLARQGVVDSKSDYSYNKQNVAVSGTEQKGLGGLTLSTNEQGNPEVCSSGECLTVNPGPNTRGRQNWRPIEGKN”, the “soluble on expression in E. coli” value is given as “soluble”.

With “MLGVFQKRCASTAPLIRPIQRVLVANRGEIAIRVQNTARKMGIETVAVFSDADRNSLFVKKADKAYHIGPPLAAESYLNMDKIINSALRSGAQAIHPGYGFLSENAGFAEKCAQAGLVFIGPPAQAIRDMGAKNVSKQIMEDAKVPVVKGFHGEDQSDANLKKKSAEIGYPVMLKAVYGGGGKGMRIAWNEAEFEEKLASARNEAKKSFGNDEMLVEKFVEKPRHVEVQVFGDHHGNYVHLWERDCSVQRRHQKIIEEAPAPNMEHDTRVKLGESAVRAAAAVGYVGAGTVEFIMDPRGEFYFMEMNTRLQVEHPVSEAITGTDLVEWQLRVAQGEKLPLKQSEIPLNGHAFECRVYAEDTRKGAFMPTAGRLNYVDFPEDARIDTGVVSGDEVSIHYDPMIAKVVVWGQDRAVAAAKLESALARTRISGLPTNIDFVRRVLAHPEFAAGNVYTDFIPDHQKELFAESETPAEIYVESAVAHALAALQKSDAGVFQNLSFFRMNLSPKYIFKIDGKDVSIRFDSDSRLTVSYDGNSYETLLNDIESTTDGSFKFTLEANGRRWSTVVKNLGNSLMVNGVGQNEYETPQIHETFDSLSGGAASHSAVAPMPGIIEKILVKPGEQVTTGQALVVMTAMKMEYIIRAPEDSTVEHIKCQAGKNVPKNAVLVQFA”, the “soluble on expression in E. coli” value was “not soluble”.

For the origin of these results see the DeepSol protein solubility set.
